“Also recorded” adds a separate entry of the source. Read-outs that look alike come from different tables or passages of the source.
Test system: TβRI GS region peptide (F-Ahx-YDMTTpSGpSGpSGLPLL)
Experiment: Fluorescence anisotropy binding to TβRI GS peptide
From the text: However, this tentative assignment has been confirmed neither by a high-resolution structure of the Smad2-TβRI complex nor by a quantitative and systematic binding study, leaving uncertainty about the exact nature of the Smad2-TβRI-binding interface. Since the L3 loop is a part of the newly identified PI(4,5)P2-binding site, we checked if these PI(4,5)P2-binding residues are also involved in the Smad2-TβRI interaction using two fluorescein-labeled synthetic peptides derived from the GS region (i.e., GS peptide: fluorescein-aminohexanoyl (F-Ahx)-YDMTTpSGpSGpSGLPLL) and the L45 loop (i.e., L45 peptide: F-Ahx-ADNKDNGT), respectively. In particular, the GS peptide represents the GS motif triply phosphorylated by TβRII. We then measured binding to Smad2 WT and mutants to these peptides by fluorescence anisotropy according to our established protocol ([21]). […] We thus primarily used the GS peptide to assess the effects of mutations on the Smad2-TβRI interaction. […] They also yielded distinct structural variants for further functional studies. Specifically, W422A and Y426A could serve as specific PI(4,5)P2 binding-compromised mutants and K420A as a predominantly TβRI binding-compromised mutant. R427A/R428A could also serve as a PI(4,5)P2 and TβRI binding-compromised mutant, whereas E425K as a PI(4,5)P2 and TβRI binding-enhanced mutant.
Figure 3 Affinity of Smad2 WT and mutants for TβRI-derived peptides determined by fluorescence anisotropy.A, binding of Smad2 WT (black), W422A (red), Y420A (cyan), R427A/R428A (green), K420A (blue), and E425K (orange) to the GS peptide (F-Ahx-YDMTTpSGpSGpSGLPLL). […] B, binding of Smad2 WT (black), W422A (red), Y420A (cyan), R427A/R428A (green), K420A (blue), and E425K (orange) to the L45 loop peptide (F-Ahx-DNKDNGT). C, effects of 50 μM POPC/POPS/PI(4,5)P2 (77:20:3) LUVs on binding of Smad2 to the GS peptide. The presence of vesicles (orange) raises the Kd value from 20 ± 6 to 60 ± 7 nM. The peptide concentration was fixed at 2.5 nM, and the Smad2 concentration was varied from 0 to 150 μM. The experimentally observed anisotropy (A) values were normalized (Anorm) using the equation: Anorm = (A − Amin)/(Amax − Amin) where Amax and Amin are maximal and minimal A values, respectively, for each measurement. The plots of Anormversus [Smad2] were analyzed by the nonlinear least-squares analysis using the equation: Anorm = 1/(1 + Kd/[Smad2]).
The fluorescein-6-aminohexanoyl (F-Ahx)-labeled TβRI GS region peptide (F-Ahx-YDMTTpSGpSGpSGLPLL) was dissolved in dimethyl sulfoxide to yield 1 mg/ml stock solution, F-Ahx-labeled TβRI L45 loop region peptide (F-Ahx-ADNKDNGT) was dissolved in a 3:1 mixture of water and acetonitrile to yield 2.5 mg/ml stock solution. Both peptide solutions were diluted to 1 to 10 μM with 20 mM Tris buffer, pH 7.9, containing 160 mM NaCl for binding studies. In total, 300 μl of the Smad2 (WT or mutant) solution (0–250 μM) was added to a series of 1.5 ml microcentrifuge containing the peptide solution (2.5 μM). After 10-min incubation in the dark, the mixture was transferred to a quartz cuvette with 2-mm path length and fluorescence anisotropy (r) was measured with excitation and emission wavelengths set at 485 and 535 nm, respectively, using Horiba Flurolog-3 spectrofluorometer. Since Po >> Pepo under our conditions, the Kd for the Smad2-peptide binding was determined by the nonlinear least-squares analysis of the binding isotherm using the Equation 1:(1) Pepbound/Pep0=Δr/Δrmax=1/1+kd/P0 where Pepbound, Pep0, and P0 indicate the concentration of bound peptide, total peptide, and total Smad2, respectively, and Δr and Δrmax are the anisotropy change for each P0 and the maximal Δr, respectively.

[1] = fluorescence anisotropy, 20 mM Tris, pH 7.9, 160 mM NaCl, 10-min incubation, average ±S.D., n = 3, read-out: Kd for peptide binding, GS peptide

B1: Smad2-W422A: W422A mutant of full-length Smad2; specific PI(4,5)P2 binding-compromised (protein)
chain: MSSILPFTPPVVKRLLGWKKSAGGSGGAGGGEQNGQEEKWCEKAVKSLVKKLKKTGRLDELEKAITTQNCNTKCVTIPSTCSEIWGLSTANTVDQWDTTGLYSFSEQTRSLDGRLQVSHRKGLPHVIYCRLWRWPDLHSHHELKAIENCEYAFNLKKDEVCVNPYHYQRVETPVLPPVLVPRHTEILTELPPLDDYTHSIPENTNFPAGIEPQSNYIPETPPPGYISEDGETSDQQLNQSMDTGSPAELSPTTLSPVNHSLDLQPVTYSEPAFWCSIAYYELNQRVGETFHASQPSLTVDGFTDPSNSERFCLGLLSNVNRNATVEMTRRHIGRGVRLYYIGGEVFAECLSDSAIFVQSPNCNQRYGWHPATVCKIPPGCNLKIFNNQEFAALLAQSVNQGFEAVYQLTRMCTIRMSFVKGAGAEYRRQTVTSTPCWIELHLNGPLQWLDKVLTQMGSPSVRCSSMS
modifications: left off: His6, N-terminal, state not stated
GS peptide affinity relative to WT (fluorescence anisotropy): essentially the same affinity as the WT; also recorded: essentially identical binding curves
Kd [1]: 21 ± 5 µM

B2: Smad2-K420A: K420A mutant of full-length Smad2; predominantly TβRI binding-compromised (protein)
chain: MSSILPFTPPVVKRLLGWKKSAGGSGGAGGGEQNGQEEKWCEKAVKSLVKKLKKTGRLDELEKAITTQNCNTKCVTIPSTCSEIWGLSTANTVDQWDTTGLYSFSEQTRSLDGRLQVSHRKGLPHVIYCRLWRWPDLHSHHELKAIENCEYAFNLKKDEVCVNPYHYQRVETPVLPPVLVPRHTEILTELPPLDDYTHSIPENTNFPAGIEPQSNYIPETPPPGYISEDGETSDQQLNQSMDTGSPAELSPTTLSPVNHSLDLQPVTYSEPAFWCSIAYYELNQRVGETFHASQPSLTVDGFTDPSNSERFCLGLLSNVNRNATVEMTRRHIGRGVRLYYIGGEVFAECLSDSAIFVQSPNCNQRYGWHPATVCKIPPGCNLKIFNNQEFAALLAQSVNQGFEAVYQLTRMCTIRMSFVAGWGAEYRRQTVTSTPCWIELHLNGPLQWLDKVLTQMGSPSVRCSSMS
modifications: left off: His6, N-terminal, state not stated
GS peptide affinity relative to WT (fluorescence anisotropy): tenfold decrease; also recorded: tenfold lower affinity than the WT
Kd [1]: 200 ± 48 µM

B3: Smad2-E425K: charge-reversal mutant of full-length Smad2; PI(4,5)P2 and TβRI binding-enhanced (protein)
chain: MSSILPFTPPVVKRLLGWKKSAGGSGGAGGGEQNGQEEKWCEKAVKSLVKKLKKTGRLDELEKAITTQNCNTKCVTIPSTCSEIWGLSTANTVDQWDTTGLYSFSEQTRSLDGRLQVSHRKGLPHVIYCRLWRWPDLHSHHELKAIENCEYAFNLKKDEVCVNPYHYQRVETPVLPPVLVPRHTEILTELPPLDDYTHSIPENTNFPAGIEPQSNYIPETPPPGYISEDGETSDQQLNQSMDTGSPAELSPTTLSPVNHSLDLQPVTYSEPAFWCSIAYYELNQRVGETFHASQPSLTVDGFTDPSNSERFCLGLLSNVNRNATVEMTRRHIGRGVRLYYIGGEVFAECLSDSAIFVQSPNCNQRYGWHPATVCKIPPGCNLKIFNNQEFAALLAQSVNQGFEAVYQLTRMCTIRMSFVKGWGAKYRRQTVTSTPCWIELHLNGPLQWLDKVLTQMGSPSVRCSSMS
modifications: left off: His6, N-terminal, state not stated
GS peptide affinity relative to WT (fluorescence anisotropy): twofold higher affinity
Kd [1]: 8 ± 0.8 µM

B4: Smad2 WT: bacterially expressed full-length Smad2 wild-type (protein)
chain: MSSILPFTPPVVKRLLGWKKSAGGSGGAGGGEQNGQEEKWCEKAVKSLVKKLKKTGRLDELEKAITTQNCNTKCVTIPSTCSEIWGLSTANTVDQWDTTGLYSFSEQTRSLDGRLQVSHRKGLPHVIYCRLWRWPDLHSHHELKAIENCEYAFNLKKDEVCVNPYHYQRVETPVLPPVLVPRHTEILTELPPLDDYTHSIPENTNFPAGIEPQSNYIPETPPPGYISEDGETSDQQLNQSMDTGSPAELSPTTLSPVNHSLDLQPVTYSEPAFWCSIAYYELNQRVGETFHASQPSLTVDGFTDPSNSERFCLGLLSNVNRNATVEMTRRHIGRGVRLYYIGGEVFAECLSDSAIFVQSPNCNQRYGWHPATVCKIPPGCNLKIFNNQEFAALLAQSVNQGFEAVYQLTRMCTIRMSFVKGWGAEYRRQTVTSTPCWIELHLNGPLQWLDKVLTQMGSPSVRCSSMS
modifications: left off: His6, N-terminal, state not stated
notes: bacterially expressed full-length Smad2 wild-type
effect of PI(4,5)P2 LUVs on binding to the GS peptide (50 μM POPC/POPS/PI(4,5)P2 (77:20:3) LUVs): significantly interfered with binding of Smad2 to the GS peptide
Kd [1]: 20 ± 6 µM
binding to GS peptide relative to L45 peptide (fluorescence anisotropy, Kd comparison): 3.3 times
Kd (with 50 μM POPC/POPS/PI(4,5)P2 (77:20:3) LUVs, fluorescence anisotropy, Smad2 0 to 150 μM, read-out: Kd, GS peptide, in the presence of vesicles): 0.06 ± 0.007 µM
Kd (without LUVs, fluorescence anisotropy, Smad2 0 to 150 μM, read-out: Kd, GS peptide, without vesicles): 0.02 ± 0.006 µM

B5: Smad2- R427A/R428A: double mutant of full-length Smad2; PI(4,5)P2 and TβRI binding-compromised (protein)
chain: MSSILPFTPPVVKRLLGWKKSAGGSGGAGGGEQNGQEEKWCEKAVKSLVKKLKKTGRLDELEKAITTQNCNTKCVTIPSTCSEIWGLSTANTVDQWDTTGLYSFSEQTRSLDGRLQVSHRKGLPHVIYCRLWRWPDLHSHHELKAIENCEYAFNLKKDEVCVNPYHYQRVETPVLPPVLVPRHTEILTELPPLDDYTHSIPENTNFPAGIEPQSNYIPETPPPGYISEDGETSDQQLNQSMDTGSPAELSPTTLSPVNHSLDLQPVTYSEPAFWCSIAYYELNQRVGETFHASQPSLTVDGFTDPSNSERFCLGLLSNVNRNATVEMTRRHIGRGVRLYYIGGEVFAECLSDSAIFVQSPNCNQRYGWHPATVCKIPPGCNLKIFNNQEFAALLAQSVNQGFEAVYQLTRMCTIRMSFVKGWGAEYAAQTVTSTPCWIELHLNGPLQWLDKVLTQMGSPSVRCSSMS
modifications: left off: His6, N-terminal, state not stated
GS peptide affinity relative to WT (fluorescence anisotropy): twofold lower affinity than the WT
Kd [1]: 44 ± 4 µM

B6: Smad2-Y426A: Y426A mutant of full-length Smad2; specific PI(4,5)P2 binding-compromised (protein)
chain: MSSILPFTPPVVKRLLGWKKSAGGSGGAGGGEQNGQEEKWCEKAVKSLVKKLKKTGRLDELEKAITTQNCNTKCVTIPSTCSEIWGLSTANTVDQWDTTGLYSFSEQTRSLDGRLQVSHRKGLPHVIYCRLWRWPDLHSHHELKAIENCEYAFNLKKDEVCVNPYHYQRVETPVLPPVLVPRHTEILTELPPLDDYTHSIPENTNFPAGIEPQSNYIPETPPPGYISEDGETSDQQLNQSMDTGSPAELSPTTLSPVNHSLDLQPVTYSEPAFWCSIAYYELNQRVGETFHASQPSLTVDGFTDPSNSERFCLGLLSNVNRNATVEMTRRHIGRGVRLYYIGGEVFAECLSDSAIFVQSPNCNQRYGWHPATVCKIPPGCNLKIFNNQEFAALLAQSVNQGFEAVYQLTRMCTIRMSFVKGWGAEARRQTVTSTPCWIELHLNGPLQWLDKVLTQMGSPSVRCSSMS
modifications: left off: His6, N-terminal, state not stated
GS peptide affinity relative to WT (fluorescence anisotropy): essentially the same affinity as the WT
Kd [1]: 20 ± 3 µM
GS peptide affinity relative to WT (fluorescence anisotropy, listed as Y420A): essentially identical binding curves
